Assay results as given in US9823254B2, “Reversible chemoenzymatic labeling of native and fusion carrier protein motifs” (The Regents of the University of California, priority 2012, dated 2017).
Several values for one entry are separate records, joined by “and”; a condition that tells them apart may be missing. Equal entries are not always repeated.

Tests used:
E. coli AcpP = E. coli AcpP (Escherichia coli, UniProt P0A6A8); settings: FAS; crypto-CP (coumarin-PPant), overnight, 37° C., 1 μM AcpH
Method: (§1) Unless otherwise noted, all coumarin-PPant labeling proceeded as follows: apo-carrier protein or peptide at 50-200 μM were labeled in 50 mM Na-HEPES pH 7.5, 10 mM MgCl2, 8 mM ATP, 0.1 μM MBP-CoaA/D/E, 0.1 μM native Sfp, and 1.1 equivalents of coumarin-pantetheine at 37° C. overnight. Crypto-protein samples were repurified using standard IMAC techniques in pH 8 lysis buffer with Ni-NTA resin, and spin-concentrated/buffer exchanged to remove imidazole and concentrate with 0.5 mL 3 kDa MWCO cellulose filters. Crypto-peptide samples were purified with HPLC, lyophilized, and redissolved in 50 mM TrisCl pH 8.0 prior to analysis.
(§2) Following AcpH treatment, an equal volume of 2×SDS-PAGE loading dye was added to crypto-carrier proteins samples and heated 5 min at 90° C., and run on 12% or 15% SDS-PAGE. Gels were fixed in 50/40/10% water/methanol/acetic acid for 30 minutes, and washed with water three times before UV imaging. Holo-carrier protein reactions were analyzed with Urea-PAGE as previously described.^6 All protein gels were Coomassie stained for evaluating total protein. Crypto-peptides were evaluated on Urea-PAGE, and were imaged immediately after running with no gel fixing.

P. aeruginosa AcpP = P. aeruginosa AcpP (Pseudomonas aeruginosa, UniProt O54439); settings: FAS; crypto-CP (coumarin-PPant), overnight, 37° C., 1 μM AcpH
Method: as §1, §2

S. oneidensis AcpP = test: AcpH qualitative CP activity, holo-SoAcpP, Urea-PAGE; assay type: biochemical; settings: FAS, Urea-PAGE gel-shift, shorter timescale
P. falciparum ACP = test: AcpH qualitative CP activity, gel-based, crypto-CP; assay type: biochemical; settings: FAS; crypto-CP (coumarin-PPant), overnight, 37° C., 1 μM AcpH
M. tuberculosis MAS = test: AcpH qualitative CP activity, gel-based, crypto-CP; assay type: biochemical; settings: FAS (FAS/PKS hybrid), overnight, 37° C., 1 μM AcpH
S. coelicolor ActACP = target: T1, S. coelicolor ActACP (Streptomyces coelicolor, UniProt Q02054); test: AcpH qualitative CP activity, gel-based, crypto-CP; assay type: biochemical; settings: PKS; crypto-CP (coumarin-PPant), overnight, 37° C., 1 μM AcpH
T1 construct: made in house
T1 sequence (Q02054 whole entry, looked up): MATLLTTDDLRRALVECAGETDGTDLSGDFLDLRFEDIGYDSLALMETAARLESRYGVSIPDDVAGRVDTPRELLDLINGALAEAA

A. parasiticus PksA = target: T2, A. parasiticus PksA (Aspergillus parasiticus, UniProt Q12053); test: AcpH qualitative CP activity, gel-based, crypto-CP; assay type: biochemical; settings: PKS; crypto-CP (coumarin-PPant), overnight, 37° C., 1 μM AcpH
T2 construct: made in house

G. fujikuroi Pks4 = test: AcpH qualitative CP activity, gel-based, crypto-CP; assay type: biochemical; settings: PKS; crypto-CP (coumarin-PPant), overnight, 37° C., 1 μM AcpH
L majuscula JamC = target: T3, L majuscula JamC (Moorena producens, UniProt Q6E7K7); test: AcpH qualitative CP activity, gel-based, crypto-CP; assay type: biochemical; settings: PKS; crypto-CP (coumarin-PPant), overnight, 37° C., 1 μM AcpH
T3 construct: made in house

L majuscula JamF = test: AcpH qualitative CP activity, gel-based, crypto-CP; assay type: biochemical; settings: PKS; crypto-CP (coumarin-PPant), overnight, 37° C., 1 μM AcpH
P. agglomerans AdmI = test: AcpH qualitative CP activity, gel-based, crypto-CP; assay type: biochemical; settings: PKS; crypto-CP (coumarin-PPant), overnight, 37° C., 1 μM AcpH
P. agglomerans AdmA = test: AcpH qualitative CP activity, gel-based, crypto-CP; assay type: biochemical; settings: NRPS; crypto-CP (coumarin-PPant), overnight, 37° C., 1 μM AcpH
A. orientalis CepK = test: AcpH qualitative CP activity, gel-based, crypto-CP; assay type: biochemical; settings: NRPS; crypto-CP (coumarin-PPant), overnight, 37° C., 1 μM AcpH
P. fluorescens PltL = test: AcpH qualitative CP activity, gel-based, crypto-CP; assay type: biochemical; settings: NRPS; crypto-CP (coumarin-PPant), overnight, 37° C., 1 μM AcpH
P. syringae SyrB1 = P. syringae SyrB1 (Pseudomonas syringae pv. syringae, UniProt Q52400); test: AcpH qualitative CP activity, gel-based, crypto-CP; assay type: biochemical; settings: NRPS; crypto-CP (coumarin-PPant), overnight, 37° C., 1 μM AcpH
YbbR13 = test: AcpH activity with modified ybbR peptide, qualitative; assay type: biochemical; settings: for AcpH activity with modified ybbR peptide: coumarin-PPant labeled
crypto-FITC-YbbR (3) = target: T4, crypto-FITC-YbbR (3) (Bacillus subtilis, UniProt O34659); test: FRET-quench microwell AcpH kinetics; assay type: biochemical; settings: 37° C., FRET-quench microwell plate assay, [AcpH] 1 μm
T4 construct: made in house; host or cells: enzymatic labelling of FITC-ybbR peptide with Sfp and rhodamine-CoA
T4 sequence (O34659 whole entry, looked up): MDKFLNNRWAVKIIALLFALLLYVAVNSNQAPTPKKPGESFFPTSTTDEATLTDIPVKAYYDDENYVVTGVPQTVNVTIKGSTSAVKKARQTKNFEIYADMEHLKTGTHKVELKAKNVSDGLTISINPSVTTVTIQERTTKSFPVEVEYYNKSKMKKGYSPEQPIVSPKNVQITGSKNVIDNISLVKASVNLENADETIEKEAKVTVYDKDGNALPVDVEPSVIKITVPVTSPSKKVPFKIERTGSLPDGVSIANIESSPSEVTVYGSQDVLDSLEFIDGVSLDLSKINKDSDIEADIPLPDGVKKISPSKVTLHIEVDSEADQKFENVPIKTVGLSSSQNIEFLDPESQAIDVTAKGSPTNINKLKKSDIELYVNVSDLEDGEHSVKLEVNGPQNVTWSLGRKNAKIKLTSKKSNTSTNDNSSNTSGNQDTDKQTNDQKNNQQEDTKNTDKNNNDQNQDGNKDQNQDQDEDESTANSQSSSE
Method: Preparation of rhodamine-labeled FITC-ybbR proceeded via reaction of 200 μM FITC-ybbR with 200 μM rhodamine WT-CoA synthesized as described previously^33 with 1 μM Sfp in 50 mM HEPES pH 7.5 and 10 mM MgCl2 for 2 hours at 37° C.
Rhodamine-labeled FITC-Ybbr as well as standard 1:1 apo-FITC-ybbR:rhodamine-CoA was subjected to an 11-point serial dilution in 50 mM TrisCl pH 8.0 to achieve final concentrations of 400-0.4 μM. […] Total reaction volumes were 50 μL and utilized a 96-well Costar 3694 plate (Corning, Lowell, Mass.). Following mixing, reactions were centrifuged for 2 minutes at 1500 rpm, and incubated at 37° C. over 4 hours in a HTS 7000 plus Bioassay Reader (Perkin Elmer, Waltham, Mass.) in kinetic mode. Comparison of enzyme reactions to buffer blank and 1:1 apo-FITC-ybbR:rhodamine-CoA standard allowed calculation of product formation and determination of Michaelis-Menten kinetics using GraphPad Prism.

M. tuberculosis AcpM = M. tuberculosis AcpM (Mycobacterium tuberculosis, UniProt P9WQF3); settings: FAS; crypto-CP (coumarin-PPant), overnight, 37° C., 1 μM AcpH
V. cholerae VibB = target: T5, V. cholerae VibB (Vibrio cholerae serotype O1, UniProt P0C6D3); settings: NRPS; crypto-CP (coumarin-PPant), overnight, 37° C., 1 μM AcpH
T5 sequence (P0C6D3 whole entry, looked up): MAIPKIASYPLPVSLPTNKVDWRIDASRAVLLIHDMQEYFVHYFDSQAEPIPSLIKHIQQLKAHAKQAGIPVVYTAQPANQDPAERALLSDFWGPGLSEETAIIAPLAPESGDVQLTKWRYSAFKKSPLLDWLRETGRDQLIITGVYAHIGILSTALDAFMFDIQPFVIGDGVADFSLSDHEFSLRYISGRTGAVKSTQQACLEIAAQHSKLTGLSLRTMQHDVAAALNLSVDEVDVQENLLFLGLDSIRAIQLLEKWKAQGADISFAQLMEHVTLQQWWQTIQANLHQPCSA

holo-ACP (E. coli) = holo-ACP (E. coli) (Escherichia coli, UniProt P0A6A8); settings: 37° C., HPLC detection, [AcpH] 1 (CyAcpH 0.005) μm
Method: Holo-E. coli AcpP was prepared as a serial dilution in 50 mM TrisCl, 250 mM NaCl, 30 mM MgCl2, and 2 mM MnCl2. […] CyAcpH was prepared at 10 nM in the same AcpH buffer. […] Reactions were transferred to prewarmed shaker at 37° C. and were quenched with 100 mM EDTA after 10 minutes. Samples were centrifuged and evaluated at 210 nm with HPLC using an acetonitrile gradient to determine apo-AcpP product formation. Michaelis-Menten kinetics were calculated using GraphPad Prism (GraphPad Software, La Jolla, Calif.).
E. coli holo-ACP was diluted into 50 mM TrisCl pH 8.0, 250 mM NaCl, 10% glycerol, 30 mM MgCl2 and 2 mM MnCl2 buffer to a concentration of 800 μM. […] AcpH was diluted from MOPS lysis buffer into 50 mM TrisCl pH 8.0, 250 mM NaCl, 10% glycerol and added to an equal volume of the holo-ACP serial dilution to initiate the reaction. Reaction tubes were transferred to a pre-warmed rack at 37° C. and shaken for the duration of the experiment. […] All samples were frozen at -80° C. until evaluated by HPLC.
Kinetics samples were mixed briefly with finger flicking, and centrifuged at 13000 rpm for 10 minutes at room temperature prior to transferring contents into HPLC vials. 20 μL of each reaction time point was injected on an Agilent 1100 series HPLC with column (Burdick & Jackson OD5 #9575, 25 cm×4.6 mm ID) using an acetonitrile/water gradient. Both water and acetonitrile contained 0.05% TFA. Method gradient for each injection: 0-5 min with 10% acetonitrile, 5-30 min with 10-100% acetonitrile, 30-35 min with 100% acetonitrile, 35-37 min with 100-10% acetonitrile, 37-40 min with 10% acetonitrile. HPLC-grade solvents (J. T. Baker, Phillipsburg, N.J.) were used exclusively. Apo- & holo-ACP protein standards were used to validate the retention times identified using 210 nm UV light at approximately 21 and 19 minutes, respectively. Peak integration was performed for all samples, and substrate turnover was calculated from the ratio of apo- to holo-ACP present in the HPLC trace and the known concentration of total ACP in reaction samples. Calculated rates for AcpH versus substrate concentration were obtained through Excel data analysis and graphed in Prism GraphPad using the “Michaelis-Menten” function for enzyme kinetics, with a zero data point added for substrate concentration of 0 μM*min-1 and 0 μM substrate for AcpH graphs.

ybbR = target: T6, ybbR (Bacillus subtilis, UniProt O34659); settings: Sfp for ybbR; cited from earlier work
T6 sequence (O34659 whole entry, looked up): T4 sequence (O34659 whole entry, looked up)

apo-E. coli AcpP = apo-E. coli AcpP (Escherichia coli, UniProt P0A6A8); settings: Sfp for apo-E. coli AcpP; cited from earlier work

B1: CyAcpH: acyl carrier protein hydrolase homolog from Cyanothece PCC 7822, YP13 003888700.1 (protein)
chain: MNYLAHLFLADPTPESQIGNLLGDFVKGKIDNLSSIYSPEIIRGVKTHQKIDIFTDHHPIFKTSKQRLNQNHRKFAGVIIDIYYDHFLAKNWLIYSEQDLDEFVANTYQMLEQHQLLLPEKLQKALPCMIQEDWLGSYRYFEGIDQTFSRLSRRIKRTNNIAFALEDLIQNYSQLEEDFLQFFPQLIDYVNLA
modifications: Cyanothece sp. PCC 7822
E. coli AcpP
  AcpH qualitative CP activity: YES
P. aeruginosa AcpP
  AcpH qualitative CP activity: YES
S. oneidensis AcpP
  AcpH qualitative CP activity: YES^†
P. falciparum ACP
  AcpH qualitative CP activity: YES
M. tuberculosis MAS
  AcpH qualitative CP activity: no
S. coelicolor ActACP
  AcpH qualitative CP activity: no
A. parasiticus PksA
  AcpH qualitative CP activity: YES
G. fujikuroi Pks4
  AcpH qualitative CP activity: no
L majuscula JamC
  AcpH qualitative CP activity: YES
L majuscula JamF
  AcpH qualitative CP activity: no
P. agglomerans AdmI
  AcpH qualitative CP activity: no
P. agglomerans AdmA
  AcpH qualitative CP activity: no
A. orientalis CepK
  AcpH qualitative CP activity: no
P. fluorescens PltL
  AcpH qualitative CP activity: no
P. syringae SyrB1
  AcpH qualitative CP activity: no
YbbR13; Coumarin-PPant conjugated to all ybbR variations, Urea-PAGE
  qualitative activity for all ybbR constructs: qualitative activity
YbbR13; YbbR13: N-term 6xHis, C-term GFP
  AcpH activity with modified ybbR peptide: YES
YbbR13; YbbR13: N-term FITC, C-term N/A
  AcpH activity with modified ybbR peptide: YES
YbbR13; YbbR13: N-term GFP, C-term 6xHis
  AcpH activity with modified ybbR peptide: YES
YbbR13; YbbR13 free peptide: N-term N/A, C-term N/A
  AcpH activity with modified ybbR peptide: YES
crypto-FITC-YbbR (3)
  Km: 21 µM
  Vmax: 0.004 ± 0.004 min⁻¹
  kcat: 6.7e-05 ± 6.7e-05 s⁻¹
M. tuberculosis AcpM
  AcpH qualitative CP activity: YES
V. cholerae VibB
  AcpH qualitative CP activity: no
holo-ACP (E. coli)
  Km: 58 ± 9 µM
  Vmax: 1.1 ± 0.1 min⁻¹
  kcat: 3.52 s⁻¹ and 3.52 ± 0.183 s⁻¹

B2: Sfp: phosphopantetheinyl transferase (PPTase) from Bacillus subtilis (protein, UniProt P39135 1-224, looked up)
4'-phosphopantetheinyl …: MKIYGIYMDRPLSQEENERFMSFISPEKREKCRRFYHKEDAHRTLLGDVLVRSVISRQYQLDKSDIRFSTQEYGKPCIPDLPDAHFNISHSGRWVICAFDSQPIGIDIEKTKPISLEIAKRFFSKTEYSDLLAKDKDEQTDYFYHLWSMKESFIKQEGKGLSLPLDSFSVRLHQDGQVSIELPDSHSPCYIKTYEVDPGYKMAVCAAHPDFPEDITMVSYEELL
ybbR
  kcat: 11
apo-E. coli AcpP
  kcat: 0.0967 s⁻¹
